Results as given in patent US20250129169A1 (Stanford University, published 2025).

Columns and labels:
[1] = target: IL-2Rβ/γc receptor heterodimer on cells (human) (UniProt P14784); experiment: cell-based or functional assay
Human IL-2Rβ ECD [2] = target: T1, Human IL-2Rβ ECD (human, UniProt P14784 27-240, biotinylated (site not stated)); experiment: SPR; biotinylated human IL-2Rβ ECD on streptavidin chip, VHH as analyte; KD from fit to steady-state responses [Cont.]
T1 construct: extracellular domain; Biotinylated and held on a streptavidin chip for SPR; also called biotinylated human IL-2Rβ ECD
T1 sequence (looked up): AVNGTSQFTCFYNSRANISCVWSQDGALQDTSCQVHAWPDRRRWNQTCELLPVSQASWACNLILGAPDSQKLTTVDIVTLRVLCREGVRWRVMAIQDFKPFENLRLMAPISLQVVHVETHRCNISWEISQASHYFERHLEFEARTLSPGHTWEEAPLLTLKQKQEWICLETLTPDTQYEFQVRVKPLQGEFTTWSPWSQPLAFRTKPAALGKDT
Protocol: (§1) FIGS. 2A-2H show data on SPR validation of IL-2Rβ- and γc-VHHs and agonist screening in YT-1 cells. (A) Biotinylated human IL-2Rβ ECD was immobilized on a streptavidin (SA) sensor chip, and varying concentrations of IL-2Rβ VHH were applied to determine binding parameters using SPR. Sensorgrams are shown on the left, and steady state binding is plotted on the right. Binding affinities (KD) were determined by fitting to steady state response values. (B) Biotinylated human γC ECD was immobilized on a SA chip, and varying concentrations of γc VHH were flowed over the chip to determine binding. […] (C) Steady-state binding affinities between VHH/scFv and IL-2R, as determined by SPR. Values for scFv affinities are derived from patent US20160367664A1 (Wang et al., 2016). (D) Table of pSTAT5 Eₘₐₓ values for the indicated VHH pairings. (E) Tuning IL-2 activity via generation of acid-base VHH zipper pairings. (F) Tuning IL-2 activity via generation of 2:1 β:γc or γc:β stoichiometries. VHH binding modules are linked together in a tripartite (β-γc-β or γc-β-γc) manner. Graph axes are represented as in (E). (G) Dose-response relationship of pSTAT5 geometric mean flurorescence intensities (gMFI) of selected agonists. (H) Corresponding histograms showing STAT5 activity in YT-1 cells treated with human IL-2 vs. IL-2 surrogate agonists at saturating concentration.

Human IL-2Rβ ECD [3] = target: T1, Human IL-2Rβ ECD; experiment: SPR, steady-state binding affinity (drawn table)
Protocol: as §1

human IFNAR2 ECD = target: T2, human IFNAR2 ECD (human, UniProt P48551 27-243); experiment: SPR; human IFNAR2 ECD immobilized, VHH as analyte; binding constants from kinetic fits
T2 construct: extracellular domain; Immobilized for SPR under the same conditions as for the IL-2 specific VHHs
T2 sequence (looked up): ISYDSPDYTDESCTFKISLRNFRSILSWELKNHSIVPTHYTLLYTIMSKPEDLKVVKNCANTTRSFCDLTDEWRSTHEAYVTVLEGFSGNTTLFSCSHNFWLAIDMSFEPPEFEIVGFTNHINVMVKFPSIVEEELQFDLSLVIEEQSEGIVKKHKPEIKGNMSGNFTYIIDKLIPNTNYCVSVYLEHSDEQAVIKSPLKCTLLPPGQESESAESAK
Protocol: FIGS. 8A-8D depict signaling kinetics and gene expression driven by Type I Interferon surrogate ligands. (A) SPR sensorgrams displaying dose-dependent binding of IFNAR2 VHHs to immobilized human IFNAR2 ECD. SPR experiments were performed using the same conditions as for IL-2 specific VHHs. Binding constants were determined from kinetic fitting and summarized in (B). (C) qRT-PCR analysis of mRNA level of indicated genes in human primary bronchial/tracheal epithelial cells treated with 10 nM surrogate ligands or IFNω for 8 hr. (D) qRT-PCR analysis of mRNA level of indicated genes in PBMCs treated with 10 nM surrogate ligands or IFNω for 8 hr.

human IL-10Rβ ECD = target: T3, human IL-10Rβ ECD (human, UniProt Q08334 20-220); experiment: SPR, kinetic fit, immobilized human IL-10Rβ ECD
T3 construct: extracellular domain; Immobilized for SPR under the same conditions as for the IL-2 specific VHHs
T3 sequence (looked up): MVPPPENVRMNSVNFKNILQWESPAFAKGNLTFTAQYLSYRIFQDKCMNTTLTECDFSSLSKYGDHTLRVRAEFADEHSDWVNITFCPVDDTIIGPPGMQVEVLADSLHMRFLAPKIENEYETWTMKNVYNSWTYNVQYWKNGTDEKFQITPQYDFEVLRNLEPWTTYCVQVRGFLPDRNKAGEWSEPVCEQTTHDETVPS
Protocol: (A) SPR sensorgrams displaying dose-dependent binding of IL-10Rβ VHHs to immobilized human IL-10Rβ ECD. SPR experiments were performed using the same conditions as for IL-2 specific VHHs. Binding constants were determined from kinetic fitting and summarized in (B).

IL-2Rβ/γc receptor heterodimer on cells (human), sequence (P31785 23-369, one chain of several): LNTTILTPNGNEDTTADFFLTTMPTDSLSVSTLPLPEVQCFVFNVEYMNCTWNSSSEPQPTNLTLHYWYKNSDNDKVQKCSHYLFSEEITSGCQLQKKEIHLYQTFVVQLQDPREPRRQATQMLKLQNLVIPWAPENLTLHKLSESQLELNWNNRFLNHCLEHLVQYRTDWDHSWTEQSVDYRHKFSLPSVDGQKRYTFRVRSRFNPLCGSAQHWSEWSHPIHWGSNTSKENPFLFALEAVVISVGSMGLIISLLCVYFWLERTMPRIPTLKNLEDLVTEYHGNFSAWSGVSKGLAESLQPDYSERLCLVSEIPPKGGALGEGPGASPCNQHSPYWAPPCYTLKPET

B1: MY193-R (bispecific antibody, not shown: small tags and cut ends)
chain: QVQLQESGPGLVKPSETLSLTCTVSGGSISSSSYYWGWIRQPPGKGLEWIGSIYYSGSTYYNPSLKSRVTISVDTSKNQFSLKLSSVTAADTAVYYCAGDILTGYALDYWGQGTLVTVSSGGGGSGGGGSGGGGSSYELTQPPSMSVSPGQTARITCSGDALPKQFAFWYQQKPGQAPVLVIYKDTERPSGIPERFSGSSSGTTVTLTITGVQAEDEADYYCQSPDSSGTVEVFGGGTKLTVLGGGGTSASQVQLQESGGGSVQAGGSLRLSCTASGFTFDDEDMGWYRQAPGNECELVSSIGSLGRRYYADSVKDRFAISQDNAKNTVYLQMNSLKPEDTAVYYCAATKGGSWLDSILASCQGAFGYWGQGTQVTVSS
pSTAT1/3 activity in NK cells, relative to hIL-2 [1]: 3% | pSTAT1 or pSTAT3 activity in CD8+ T cells, relative to hIL-2 [1]: 25% | pSTAT5 activity in CD8+ T cells, relative to hIL-2 [1]: 90% | pSTAT5 activity in NK cells, relative to hIL-2 [1]: 45%

B2: MY173-F (bispecific antibody, not shown: small tags and cut ends)
chain: QVQLQESGGGSVQAGGSLRLSCAASSYTISSVCMGWFRQAPGKEREGVAGIAPDGSTGYGDSVKGRFTISKDNAKNTLYLQMNSLKPEDTAMYYCAAASPGRCFLPRTALEPALYYNWGQGTQVTVSSSFQVQLQESGGGSVQAGGSLRLSCAASGYTYRDYYMGWFRQAPGREREGVASIYTRGSREGSTRYSSSVEGRFTITLDTAKNTLYLQMNSLKPEDTAMYYCAADDRTWLPRVQLGGPRENEYNYWGQGTQVTVSS
pS6 activity in CD8+ T and NK cells, relative to IL-2 [1]: 50% | pSTAT5 activity in CD8+ T and NK cells, relative to IL-2 [1]: 70 to 100%

B3: 2Rβ-VHH1 (VHH)
VHH: QVQLQESGGGSVQAGGSLRLSCVTSGYTYSSANMAWFRQAPGKEREGVAIITPSGRATTYADSVKGRFTISRDNAANTLYLQMNSLKPEDTAMYYCAADTPPYSGLWYAERTYNYWGQGTQVTVSS
notes: also called IL-2Rβ-specific VHH clone 1
Kd (Human IL-2Rβ ECD [2]): 10.9 nM | Kd (Human IL-2Rβ ECD [3]): 11 nM

B4: 2Rβ-VHH3 (VHH)
VHH: QVQLQESGGGSVQAGGSLRLSCTASGFTFDDEDMGWYRQAPGNECELVSSIGSLGRRYYADSVKDRFAISQDNAKNTVYLQMNSLKPEDTAVYYCAATKGGSWLDSILASCQGAFGYWGQGTQVTVSS
Kd (Human IL-2Rβ ECD [2]): 20.2 nM | Kd (Human IL-2Rβ ECD [3]): 20 nM

B5: 2Rβ-VHH4 (VHH)
VHH: QVQLQESGGGSVQAGGSLRLSCAASGSTSCSSVMRWYRQAPGKEREFVSSINSDRRTVYADSVKGRFTISQDNAKSTLYLQMNSLKAEDTATYYCQRELYGDSWCQGNYWGQGTQVTVSS
Kd (Human IL-2Rβ ECD [2]): 123 nM | Kd (Human IL-2Rβ ECD [3]): 123 nM

B6: 2Rβ-VHH6 (VHH)
VHH: QVQLQESGGGSVQAGGSLRLSCAASSYTISSVCMGWFRQAPGKEREGVAGIAPDGSTGYGDSVKGRFTISKDNAKNTLYLQMNSLKPEDTAMYYCAAASPGRCFLPRTALEPALYYNWGQGTQVTVSS
notes: also called IL-2Rβ-VHH6
Kd (Human IL-2Rβ ECD [2]): 25 nM | Kd (Human IL-2Rβ ECD [3]): 25 nM

B7: IFNAR2-VHH1 (VHH)
VHH: QVQLQESGGGSVQPGGSLRLSCAASGFTFSNYIMSWVRQAPGKGLEWVSAISGGGNTYYTDSVKGRFTISRDNAKNTLYLQLNSLKTEDTAMYYCAQNWWVAGRSPNPPGQGTQVTVSS
notes: Member of the group m12 (IFNAR2 VHHs); also called VHH1 (IFNAR2 VHH)
Kd (human IFNAR2 ECD): 0.31 nM

B8: IFNAR2-VHH2 (VHH)
VHH: QVQLQESGGGLVQPGGSLRLSCAASGFTFSDYIMTWVRQAPGKGLEWVSSINNGGRSTYYADSVKGRFTISRDNAKNTLYLQLNSLKIEDTAMYYCARDVTCWGARTGCRVSGGTQVTVSS
notes: Member of the group m12 (IFNAR2 VHHs); also called VHH2 (IFNAR2 VHH)
Kd (human IFNAR2 ECD): 0.78 nM

B9: IFNAR2-VHH3 (VHH)
VHH: QVQLQESGGGLVQPGGSLRLSCAASEFTFSEYSMKWVRQPPGKGLEWVSTISPSGGTTRYAESVKGRFTISRDNAKNTLYLQLNSLKTEDTAMYYCSVADWSVTQRRGQGTQVTVSS
notes: Member of the group m12 (IFNAR2 VHHs); also called VHH3 (IFNAR2 VHH)
Kd (human IFNAR2 ECD): 0.21 nM

B10: IFNAR2-VHH5 (VHH)
VHH: QVQLQESGGGLVQPGGSLTLSCAASGFTFRNHIMSWVRQAPGKGLEWVSAISSGGGNTYYADSVKGRFTISRDNAKSTLYLQLNSLKTEDTAMYYCTKDWARPPYSDFLAPQAQGTQVTVSS
notes: Member of the group m12 (IFNAR2 VHHs); also called VHH5 (IFNAR2 VHH)
Kd (human IFNAR2 ECD): 0.23 nM

B11: IFNAR2-VHH8 (VHH)
VHH: QVQLQESGGGSVQAGGSLRLSCAASGFYGTYSMGWFRQAPGKEREGVAHIESDGSTRYADSMKGRFTVSKDNAKKILYLQMNSLKPEDTAVYYCAADPRPYFRTWYERARYGGQGTQVTVSS
notes: Member of the group m12 (IFNAR2 VHHs); also called VHH8 (IFNAR2 VHH)
Kd (human IFNAR2 ECD): 0.54 nM

B12: IFNAR2-VHH10 (VHH)
VHH: QVQLQESGGGLVQPGGSLRLSCAASGFTFSNHIMSWVRQAPGKGLEWVSAINSGGGSTYYRDSVKGRFTISRDNAKNTLYLQLNSLKTEDTAMYYCAKDWWRYGSDKPPGQGTQVTVSS
notes: Member of the group m12 (IFNAR2 VHHs); also called VHH10 (IFNAR2 VHH)
Kd (human IFNAR2 ECD): 0.33 nM

B13: 10Rβ-VHH1 (VHH)
VHH: QVQLQESGGGSVQAGGSLRLSCAARYTYSTYCMGWFRQAPGKEREGVAAIDSDGSTSYADSVKGRFTISKDNAKNTLYLQMNSLKPEDTAMYYCASDADCDLGGSWSTRGQGTQVTVSS
notes: member of the group m13; also called VHH1 (IL-10Rβ VHH)
Kd (human IL-10Rβ ECD): 1.6 nM

B14: 10Rβ-VHH2 (VHH)
VHH: QVQLQESGGGSVQTGGSLRLSCAASQVNMNSVGWFRQAPGKAREGVATISPSGGATYYTDSVKGRFTISRDNAKNTVYLQMNSLNAEDTAMYYCAADGGRDWWLLRPQTFSYWGQGTQVTVSS
notes: member of the group m13; also called VHH2 (IL-10Rβ VHH)
Kd (human IL-10Rβ ECD): 2.2 nM

B15: 10Rβ-VHH3 (VHH)
VHH: QVQLQESGGGSVQVGGSLRLSCAASGYTYSNYCMGWFRQAPGKEREGVATIDGDGSTRYADSVKGRFTISKDNAKNTLYLQMHSLKPEDTAMYYCAADFALCDPTVVAHTDFGYWGQGTQVTVSS
notes: member of the group m13; also called VHH3 (IL-10Rβ VHH)
Kd (human IL-10Rβ ECD): 2.5 nM

B16: 10Rβ-VHH4 (VHH)
VHH: QVQLQESGGGSVQAGGSLRLSCAASGYTYSSYCMGWFRQASGKEREGVATIDSDGSTRYADSVKGRFTISKDNAKNTLYLQMNSLKPEDTAMYYCAADLADCAPSIYSDYDVAHWGQGTQVTVSS
notes: member of the group m13; also called VHH4 (IL-10Rβ VHH)
Kd (human IL-10Rβ ECD): 2.2 nM

B17: 10Rβ-VHH5 (VHH)
VHH: QVQLQESGGGSVQAGGSLRLSCAASGYTYSSYCMGWFRQAPGKEREGVAAIDSDGSTSYADSVKGRFTISKDNAKNTLYLQMNSLKPEDTAMYYCAAEPWCTSQGRGRESAEFGYWGQGTQVTVSS
notes: member of the group m13; also called VHH5 (IL-10Rβ VHH)
Kd (human IL-10Rβ ECD): 1.7 nM
